Source: patent US20140120109A1 (Regeneron, published 2014)
Positions count from the first letter of the chain named. Numbers in names are those of the source. Values belong to the binder of their own block, whether it stands above or below them.

How the values were obtained:
[1] = molecular target: T1, human TL1A, soluble, CHO-expressed, residues 72-251 of SEQ ID NO:244 with N-terminal His6-tag (human, UniProt O95150 72-251); test: SPR 25C, mAb captured; kd set at 1e-6 1/s; 25 C; kd set at 1x10^-6 1/s
T1 construct: also called hTL1A; hTL1A (CHO)
T1 sequence: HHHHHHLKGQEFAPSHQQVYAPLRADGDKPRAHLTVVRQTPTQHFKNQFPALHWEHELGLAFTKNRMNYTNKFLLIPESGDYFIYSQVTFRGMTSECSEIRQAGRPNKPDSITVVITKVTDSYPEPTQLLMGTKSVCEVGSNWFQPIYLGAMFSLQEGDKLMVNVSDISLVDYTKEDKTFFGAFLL
Protocol: Measurements were conducted on a T100 BIACORE™ instrument. […] Kinetic association (kₐ) and dissociation (kd) rate constants were determined by fitting the data to a 1:1 binding model using BIAevaluation 4.1 curve fitting software (BIAcore Life Sciences). Molar concentrations of TL1A/Fhm used in the data fitting assumed a monomeric state for TL1A in solution. Binding dissociation equilibrium constants (KD) and dissociative half-lives (t_{1/2}) were calculated from the kinetic rate constants as: KD (M)=kd/kₐ; and t_{1/2} (min)=[In2/(60*kd)].

[2] = molecular target: T2, Fhm, hTL1A(Q167R), soluble, CHO-expressed, residues 72-251 of SEQ ID NO:246 (human, UniProt O95150 72-251); test: ELISA, blocks FHM (150 pM) binding hDR3-Fc; blocking of FHM binding to hDR3
T2 construct: also called Fhm (CHO); FHM (CHO)
T2 chain: T1 sequence with Q102R
Protocol: The ability of antibodies to block human TL1A binding to its cognate receptors, the DR3 and DcR3 receptors, was measured using a competition sandwich ELISA. In addition, blocking of a human TL1A variant FHM (human TL1A Q167R) and the cynomolgus monkey (Macaca fascicularis) TL1A (MfTL1A) protein binding to the human DR3 or DcR3 receptors was measured in the same manner. Constant amounts of biotinylated human TL1A or FHM (both expressed with a 6-His tag in CHO cells) or biotinylated MfTL1A (expressed in CHO cells) were separately titrated with varying amounts of antibodies. The antibody-protein complexes were incubated in solution (1 hr, 25° C.) and then transferred to microtiter plates coated with human DR3 (hDR3) or human DcR3 (hDcR3) expressed as human IgG1 Fc fusion proteins. After one hour at 25° C. the wells were washed, and bound human or monkey TL1A was detected with streptavidin conjugated with horseradish peroxidase (HRP). Wells were developed with a TMB solution to produce a colorimetric reaction and quenched with aqueous sulfuric acid before reading absorbance at 450 nm on a Perkin-Elmer Victor X5 plate reader. A sigmoidal dose-response curve was fit to the data using the Prism™ data analysis package. […] Both fully human anti-hTL1A mAbs and comparator antibodies, i.e., control mAb1 (an anti-hTL1A antibody with heavy and light chain variable domains having the amino acid sequences corresponding to SEQ ID NOS:21 and 27, respectively, of US 2009/0280116) and control mAb3 (an anti-hTL1A antibody with heavy and light chain variable domains having the amino acid sequences corresponding to SEQ ID NOS:57 and 48, respectively, of US 2009/0280116), were included in the study. NB: No binding under the conditions tested; NT: Not tested. Concentrations of biotinylated soluble ligands: (1) 150 pM; (2) 500 pM; (3) 10 pM; and (4) 50 pM.

- Kd [1]: ≤ 0.0158 nM
B1: H4H1750P (antibody, human IgG4 S228P, V domains shown)
VH: QVQLVESGGGVVQPGRSLRLSCVASGFTFSNYGMHWVRQAPGKGLEWVAVISYDGNNDLYSDSVKGRFTISRDNAKNALSLQMTSLRAEDTAVYYCARDSTMTPYYYHGIDVWGQGTTVTVSA
VL: DIQMTQSPSSLSASVGDRVTITCRASQDIRNDLGWYQQKPGKAPKRLIYAASSLQSGVPSRFSGSGSGTDFTLTISSLQPEDFATYYCLQHNSYPPTFGQGTKVEIK

- IC50 [2]: 0.069 nM
B2: H4H1804N (antibody, human IgG4 S228P, V domains shown)
VH: QVQLHQWGAGLLKPSETLSLTCAVSGVSFSDYHWAWIRQSPGKGLEWIGDINHRGRTNYNPSLKSRVTISLDTSGNPFSLKLTSVTAADTAVYYCARDFPNWVFDSWGQGILVTVSS
VL: EIVLSQSPGTLSLSPGERATLSCRASQSVSSSFLAWYQQYPGQAPRLLIYGASRRATGIPDRFRGSGSGTDFTLTISRLEPEDFAVYYCQQYGSSPLTFGGGTKVENK
notes: human IgG4(S108P) form of H2M1804N
